Measured values taken from paper PMC5727116, “PEPD is a pivotal regulator of p53 tumor suppressor” (Nature Communications, 2017).

Target: T1, recombinant human p53, N-terminal His tag (human, UniProt P04637 1-393)
T1 construct: human p53, wild type, 393 aa per subunit as printed; plasmid pET15b-His-human p53; also called WT p53; source: E. coli, purified (nickel nitrilotriacetic acid-agarose chromatography)
Assay: co-IP; purified PEPD or a PEPD mutant at 100 nM incubated with p53 at 200 nM in PBS, 100 µl, 2 h, room temperature; then PEPD antibody (2 µg) in 300 µl PBS overnight at 4 °C, protein G-agarose, IB
Settings: both partners purified

T1 sequence (P04637 whole entry): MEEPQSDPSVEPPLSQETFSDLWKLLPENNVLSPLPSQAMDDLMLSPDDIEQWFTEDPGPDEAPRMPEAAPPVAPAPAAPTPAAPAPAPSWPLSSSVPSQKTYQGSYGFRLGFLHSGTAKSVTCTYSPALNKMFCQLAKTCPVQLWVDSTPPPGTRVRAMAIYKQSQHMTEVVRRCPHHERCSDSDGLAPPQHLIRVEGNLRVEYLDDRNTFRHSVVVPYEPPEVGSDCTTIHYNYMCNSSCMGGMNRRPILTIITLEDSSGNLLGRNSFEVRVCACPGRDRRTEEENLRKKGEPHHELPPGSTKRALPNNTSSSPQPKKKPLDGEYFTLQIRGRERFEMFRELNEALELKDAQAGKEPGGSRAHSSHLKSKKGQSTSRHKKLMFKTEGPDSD

- binding result: binds
B1: recombinant human PEPD^265-493aa, C-terminal His tag (domain or fragment, UniProt P12955 265-493, looked up)
chain: RTIQNGDMCLFDMGGEYYCFASDITCSFPANGKFTADQKAVYEAVLRSSRAVMGAMKPGVWWPDMHRLADRIHLEELAHMGILSGSVDAMVQAHLGAVFMPHGLGHFLGIDVHDVGGYPEGVERIDEPGLRSLRTARHLQPGMVLTVEPGIYFIDHLLDEALADPARASFLNREVLQRFRGFGGVRIEEDVVVTDSGIELLTCVPRTVEEIEACMAGCDKAFTPFSGPK
notes: also called C-terminal 229 aa; source: E. coli, purified (nickel nitrilotriacetic acid-agarose chromatography)
